Measurements published in article PMC6366860.

Key:
[1] = target: F-actin from rabbit skeletal muscle (rabbit) (UniProt P68135); assay: co-sedimentation
[2] = target: murine α-cardiac myosin (filaments) (mouse) (UniProt Q02566); assay: co-sedimentation

| Kd [1] [µM] | stoichiometry N (mol C0-C2/mol actin) [1] | cosedimentation relative to human C0-C2 [2] [%] | Substance |
| --- | --- | --- | --- |
| 7.9 | 1 | 60 | wild-type mouse cMyBP-C C0-C2 (with the N-terminal extension, NTE) (domain or fragment) |
|  |  | 162 | mouse short form C0-C2, N-terminal tagged (mSF2), lacking the 8 amino acid NTE (domain or fragment) |
